Patent publication US9187525B2, “Methods of treating ophthalmic diseases using NPR-B agonists” (Shire Orphan Therapies GmbH, dated 2015)
Numbered stars: 1 amine (or outer) side, 2 acyl side, 3 side chain; on linkers, the order of the positions; unused ones are H or OH. Bridge positions count the residues as written; N and C are the ends. Square brackets hold non-standard residues; d marks the D form. Primed or numbered codes have the meaning given here. Ends that are not written are not given here. * marks the point of attachment. 5118 = (1R,2S)-ethyl 2-aminocyclohexanecarboxylate, CCOC(=O)[C@@H]1CCCC[C@@H]1N*; 5119 = (1R,2R)-ethyl 2-aminocyclohexanecarboxylate, CCOC(=O)[C@@H]1CCCC[C@H]1N*; 5116 = (1S,2R)-2-aminocyclohexanecarboxamide, NC(=O)[C@H]1CCCC[C@H]1N*; 1860″ = (1R,2R)-2-methylcyclohexanamine, C[C@@H]1CCCC[C@H]1N*; 5164 = (S)-3-amino-1-ethylazepan-2-one, CCN1CCCC[C@H](N*)C1=O; Sni = (S)-nipecotic acid, O=C([C@H]1CCCN([*:1])C1)[*:2]; 5121 = 1-propyl-butyl-amine, CCCC(CCC)N*; Octanoyl = CCCCCCCC(=O)*; 1859 = not defined here; 1906 = not defined here; 1934 = not defined here; 3791 = not defined here; 5163 = not defined here; 873 = not defined here; Che = not defined here; ala = not defined here; pro = not defined here; Occ = octanoic acid

T1: natriuretic peptide receptor-A (Homo sapiens)
T1 chain: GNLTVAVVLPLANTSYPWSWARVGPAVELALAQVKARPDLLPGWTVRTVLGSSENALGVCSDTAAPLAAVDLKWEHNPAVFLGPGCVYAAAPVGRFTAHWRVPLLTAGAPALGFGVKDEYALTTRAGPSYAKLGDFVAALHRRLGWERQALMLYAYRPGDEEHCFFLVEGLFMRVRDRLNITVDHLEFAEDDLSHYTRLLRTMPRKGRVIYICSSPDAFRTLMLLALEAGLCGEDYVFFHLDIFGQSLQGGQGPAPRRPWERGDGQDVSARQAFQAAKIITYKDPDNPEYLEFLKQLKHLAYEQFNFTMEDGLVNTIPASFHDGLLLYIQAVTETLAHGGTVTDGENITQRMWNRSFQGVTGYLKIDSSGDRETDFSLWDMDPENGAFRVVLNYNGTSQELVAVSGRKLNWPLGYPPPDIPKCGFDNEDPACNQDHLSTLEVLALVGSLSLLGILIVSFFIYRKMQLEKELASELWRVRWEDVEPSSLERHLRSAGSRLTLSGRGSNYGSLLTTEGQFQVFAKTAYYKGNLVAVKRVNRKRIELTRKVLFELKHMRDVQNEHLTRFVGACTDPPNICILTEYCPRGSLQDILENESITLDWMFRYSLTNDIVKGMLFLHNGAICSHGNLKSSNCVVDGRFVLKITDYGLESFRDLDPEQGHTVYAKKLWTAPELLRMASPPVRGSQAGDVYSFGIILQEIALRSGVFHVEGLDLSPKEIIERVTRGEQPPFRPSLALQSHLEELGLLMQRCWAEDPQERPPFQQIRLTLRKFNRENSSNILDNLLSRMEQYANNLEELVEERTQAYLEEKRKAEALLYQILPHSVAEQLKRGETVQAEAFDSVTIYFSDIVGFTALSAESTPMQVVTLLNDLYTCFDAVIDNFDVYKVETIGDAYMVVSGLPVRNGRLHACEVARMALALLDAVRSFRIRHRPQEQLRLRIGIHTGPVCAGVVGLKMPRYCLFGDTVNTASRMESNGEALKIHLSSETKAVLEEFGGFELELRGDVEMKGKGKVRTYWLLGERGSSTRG

T2: natriuretic peptide receptor-B (human)
T2 chain: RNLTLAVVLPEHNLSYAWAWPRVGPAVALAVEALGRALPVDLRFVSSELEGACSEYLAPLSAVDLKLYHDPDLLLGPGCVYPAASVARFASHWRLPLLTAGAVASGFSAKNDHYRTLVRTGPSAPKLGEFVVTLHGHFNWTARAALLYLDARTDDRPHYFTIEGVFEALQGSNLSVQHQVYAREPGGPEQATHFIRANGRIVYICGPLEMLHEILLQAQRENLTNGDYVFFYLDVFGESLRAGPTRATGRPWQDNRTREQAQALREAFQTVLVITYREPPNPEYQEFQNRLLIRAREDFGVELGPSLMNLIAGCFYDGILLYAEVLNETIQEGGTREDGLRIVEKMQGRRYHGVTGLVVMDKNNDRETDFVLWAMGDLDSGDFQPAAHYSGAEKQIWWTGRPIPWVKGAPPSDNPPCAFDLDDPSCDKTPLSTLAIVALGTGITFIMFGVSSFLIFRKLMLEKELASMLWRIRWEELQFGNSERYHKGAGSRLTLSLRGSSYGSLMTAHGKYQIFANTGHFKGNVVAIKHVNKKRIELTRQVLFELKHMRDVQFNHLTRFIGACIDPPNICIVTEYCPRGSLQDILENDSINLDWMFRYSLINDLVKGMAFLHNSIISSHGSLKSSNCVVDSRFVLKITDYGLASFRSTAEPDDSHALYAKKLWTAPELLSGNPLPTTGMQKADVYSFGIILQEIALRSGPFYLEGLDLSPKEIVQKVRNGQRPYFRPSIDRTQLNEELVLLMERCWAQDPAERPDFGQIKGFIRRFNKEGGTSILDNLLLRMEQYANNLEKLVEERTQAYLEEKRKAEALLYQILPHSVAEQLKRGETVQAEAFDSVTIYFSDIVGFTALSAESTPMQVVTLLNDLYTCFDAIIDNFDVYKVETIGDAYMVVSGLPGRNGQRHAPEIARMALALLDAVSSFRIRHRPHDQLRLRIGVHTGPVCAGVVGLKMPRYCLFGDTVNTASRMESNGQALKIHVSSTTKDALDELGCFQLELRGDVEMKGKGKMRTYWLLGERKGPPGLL

B1: JAL-0799 (peptide)
peptide: Octanoyl-AAFGLKLDR[1934]
modifications: not fully specified (some residues); printed as Occ-ala-ala-Phe-Gly-Leu-Lys-Leu-Asp-Arg-1934; reading uncertain
B2: JAL-0841 (peptide)
peptide: Octanoyl-AFGLKLDR-5121
modifications: not fully specified (some residues); printed as Occ-ala-Phe-Gly-Leu-Lys-Leu-Asp-Arg-5121
B3: JAL-0833 (peptide)
peptide: Octanoyl-[ala][ala]FGLKLDR[5163]
modifications: reading uncertain; also: printed as Occ-ala-ala-Phe-Gly-Leu-Lys-Leu-Asp-Arg-5163
B4: JAL-0825 (peptide)
peptide: Octanoyl-[ala][ala]FGLKLDR[5116]
modifications: reading uncertain; also: printed as Occ-ala-ala-Phe-Gly-Leu-Lys-Leu-Asp-Arg-5116
B5: JAL-0831 (peptide)
peptide: Octanoyl-[ala][ala]FGLKLDR[5118]
modifications: reading uncertain; also: printed as Occ-ala-ala-Phe-Gly-Leu-Lys-Leu-Asp-Arg-5118
B6: JAL-0798 (peptide)
peptide: Octanoyl-AAFGLKLDR[1859]
modifications: not fully specified (some residues); printed as Occ-ala-ala-Phe-Gly-Leu-Lys-Leu-Asp-Arg-1859; reading uncertain
B7: JAL-0839 (peptide)
peptide: Octanoyl-AFGLKLDR-{1860″}
modifications: not fully specified (some residues); printed as Occ-ala-Phe-Gly-Leu-Lys-Leu-Asp-Arg-1860
B8: JAL-0797 (peptide)
peptide: Octanoyl-AAFGLKLDR[Che]
modifications: not fully specified (some residues); printed as Occ-ala-ala-Phe-Gly-Leu-Lys-Leu-Asp-Arg-Che; reading uncertain
B9: JAL-0826 (peptide)
peptide: Octanoyl-[ala][ala]FGLKLDR[5119]
modifications: reading uncertain; also: printed as Occ-ala-ala-Phe-Gly-Leu-Lys-Leu-Asp-Arg-5119
B10: JAL-0824 (peptide)
peptide: Octanoyl-AAFGLKLDR[873]
modifications: not fully specified (some residues); printed as Occ-ala-ala-Phe-Gly-Leu-Lys-Leu-Asp-Arg-873; reading uncertain
B11: JAL-0840 (peptide)
peptide: Octanoyl-AFGLKLDR[Che]
modifications: not fully specified (some residues); printed as Occ-ala-Phe-Gly-Leu-Lys-Leu-Asp-Arg-Che; reading uncertain
B12: JAL-0801 (peptide)
peptide: Octanoyl-AAFGLKLDR[1906]
modifications: not fully specified (some residues); printed as Occ-ala-ala-Phe-Gly-Leu-Lys-Leu-Asp-Arg-1906; reading uncertain
B13: JAL-0792 (peptide)
peptide: Octanoyl-AAFGLKLDR[3791]
modifications: not fully specified (some residues); printed as Occ-ala-ala-Phe-Gly-Leu-Lys-Leu-Asp-Arg-3791; reading uncertain
B14: JAL-0834 (peptide)
peptide: Octanoyl-[ala][ala]FGLKLDR-5164
modifications: reading uncertain; also: printed as Occ-ala-ala-Phe-Gly-Leu-Lys-Leu-Asp-Arg-5164

Target: T1, natriuretic peptide receptor-A
Experiment: cell-based or functional assay

Question: GLSKGCFGLKLDRIGSMSGLGC (ligand, disulfide 6-22 (inferred)) [C-type natriuretic peptide] was tested. Which “EC50, cyclic GMP production in NPR-A transfected 293-T cells” value did it give?
Answer: 1.6 µM

Question: For MCHFGGRMDRISCYR [mini-ANP], which “EC50, cyclic GMP production in NPR-A transfected 293-T cells” value is on record?
Answer: 1.54 µM

Target: T2, natriuretic peptide receptor-B
Experiment: cell-based or functional assay

Question: Which results are given for GLSKGCFGLKLDRIGSMSGLGC (ligand, disulfide 6-22 (inferred)) [C-type natriuretic peptide]?
Answer: EC50, cyclic GMP production in GTM-3 cells: 0.0388 µM; Emax, cyclic GMP production in GTM-3 cells: 100%

Question: Which results are given for SLRRSSCFGGRMDRIGAQSGLGCNSFRY (ligand, disulfide 7-23 (inferred)) [atrial natriuretic peptide]?
Answer: EC50, cyclic GMP production in GTM-3 cells: 1.63 µM; Emax, cyclic GMP production in GTM-3 cells: 15%

Question: With MCHFGGRMDRISCYR [mini-ANP] as the binder, how does the “EC50, cyclic GMP production in GTM-3 cells” value read?
Answer: > 45 µM

Question: What about the “Emax, cyclic GMP production in GTM-3 cells” value of the same binder?
Answer: 0%

Target: T2, natriuretic peptide receptor-B
Experiment: cell-based or functional assay
Remark: another data set of the same source

Question: How did the “EC50 group, cGMP in GTM-3 cells” value turn out when Octanoyl-[ala]FGLPLDRI-NH2 (reading uncertain; also: printed as Occ-ala-Phe-Gly-Leu-Pro-Leu-Asp-Arg-Ile-NH2) [JAL-0835] was run?
Answer: ≤ 15 µM

Question: For B1, which “EC50 group, cGMP in GTM-3 cells” value is on record?
Answer: ≤ 5 µM

Question: Octanoyl-[pro]FGLPLDRI-NH2 (reading uncertain; also: printed as Occ-pro-Phe-Gly-Leu-Pro-Leu-Asp-Arg-Ile-NH2) [JAL-0836] was tested. Which “EC50 group, cGMP in GTM-3 cells” value did it give?
Answer: ≤ 15 µM

Question: B2 was tested. Which “EC50 group, cGMP in GTM-3 cells” value did it give?
Answer: ≤ 15 µM

Question: Which “EC50 group, cGMP in GTM-3 cells” value does the source give for B3 here?
Answer: ≤ 15 µM

Question: Which “EC50 group, cGMP in GTM-3 cells” value does the source give for B4 here?
Answer: ≤ 15 µM

Question: Which “EC50 group, cGMP in GTM-3 cells” value does the source give for B5 here?
Answer: ≤ 15 µM

Question: B6 was tested. Which “EC50 group, cGMP in GTM-3 cells” value did it give?
Answer: ≤ 15 µM

Question: Which “EC50 group, cGMP in GTM-3 cells” value does the source give for B7 here?
Answer: ≤ 5 µM

Question: Which “EC50 group, cGMP in GTM-3 cells” value does the source give for B8 here?
Answer: ≤ 5 µM

Question: With B9 as the binder, how does the “EC50 group, cGMP in GTM-3 cells” value read?
Answer: ≤ 5 µM

Question: Which “EC50 group, cGMP in GTM-3 cells” value does the source give for [Occ][Sni]FGLPLDRI-NH2 [JAL-0837] here?
Answer: ≤ 15 µM

Question: Which “EC50 group, cGMP in GTM-3 cells” value does the source give for B10 here?
Answer: ≤ 15 µM

Question: Which “EC50 group, cGMP in GTM-3 cells” value does the source give for B11 here?
Answer: ≤ 15 µM

Question: Which “EC50 group, cGMP in GTM-3 cells” value does the source give for B12 here?
Answer: ≤ 5 µM

Question: With B13 as the binder, how does the “EC50 group, cGMP in GTM-3 cells” value read?
Answer: ≤ 15 µM

Question: For B14, which “EC50 group, cGMP in GTM-3 cells” value is on record?
Answer: ≤ 15 µM
